Reference: the nanobody polyreactivity screen of Harvey et al. (2022)

Test: yeast display, Sf9 membrane polyspecificity reagent, FACS + sequencing; frameworks hold sequencing errors
Outline: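 Genes from sorted yeast were amplified by colony PCR, read by MiSeq 2 × 250 sequencing and filtered on CDR length. These cells carried a synthetic nanobody library in Saccharomyces cerevisiae BJ5465 and were sorted by FACS into low and high (top ~1%) gates on anti-HA and streptavidin fluorescence. Polyreactivity is labelled according to the gate of origin.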

Sequence | polyreactivity (PSR sort gate)
QVQLVESGGGLVQAGGSLRLSCAASGRILWGNTMGWYRQAPGKERELVAAISWNGGGTYYADSVKGRFTISRDNAKNTVYLQMNSLKPEDTAVYYCATRYTYSTDTGYDYWGQGTQVTVSS | low polyreactivity
QVQLEESWGVLVQAGCSLRISCAASGRIFAYNAMGSYRQAPGKERELVAAISWRVGSTYYADSVKGRFSISRDNAKNTVYLQMNILKPEDTAVYYCAVGYYRFGRVLGYYWGQGTQVSVSS | high polyreactivity
QGQLVESGGGLVQAGGRLRLSCAASGSIFRAYAMGWYRQAPGKERELVADISRSGGSTYYADSVKGRFTISRDNAKNTVYLQMNSLKPEDTAVYYCYAPVGWSVEARVSRGYEDQYDYWGQGSQVTVSS | low polyreactivity
QVQLVESGGGLVQAGGSLRLSCAASGRIFFSYAMGWYRQAPGKERELVAAINGRGGSTYYADSVKGRFTISRDNAKNTVYLQMNSLKPEDTAVYYCAATAFSKGSSWKPYYYWGQGTQVTVSS | low polyreactivity
QVQHVESGGGLVQAGGSLRLSCAASGRTLSFYAMGWYRQAPGKERELVAAINYSGGRTSYADSVKGRFTISRDNAKNTVYLQMNSLKPEDTAVYYCAKGVYPWGVYYWGQGTQVTVSS | low polyreactivity
QVQLVESGVGLVQAGGSLRLSCAASGFIFHRYAMGWYRQAPGKERELVAGITSSGGSTYYADSVKGRFTISRDNAKNTVYLQMNSLKPEDTAVYYCNADSWLYRFFGYDYWGQGTQVTVSS | low polyreactivity
QVQLVESGGGLVQAGGSLRLSCAASGRTFGYYAMGWYRPAPGKERELVAAISSGGRTYYADSVKGRFTISRDNAKNTVYLQMNSLKPEDTAVYYCNAASLVAYLARLGRDYWGQGTQVTVSS | low polyreactivity
QVQLVESGGGVVQAGGSLRLSCAASGFLFSHNAMGWYRQAPGKERELVASITSAGTTYYADSVKGRFTISRDNAKNTVYLQMNSLKPEDTAVYYCNKGGSSPVDIYITGDGDYWGQGTQVTVSS | low polyreactivity
QVQLVESGGGLVQAGGSLRLRCAASGLIFITYAMGRYRQAPGKERELVATITLRGGSTYYADSVKGRFTISRDNAKNTVYLQMNSLKPEDTAVYYCNADSIYYGYDYWGQGTQVTVSS | low polyreactivity
QVQLVQSGGGLVHAGGSLRLSCAGSGSIFGTNAMGWYRQAPGKERELVATITSAGSTYYADSVKGRFTISRDYAKITFYLQMNSLKPEDTAVYYCARQATGYVYREYDYWGQGTQVSVSS | low polyreactivity
QVQLVESGGGLVQAGGSLRLSCAASGSTFTLNAMGWYRQAPGKERELVADISWSSGRTYYADSVKGRVTISRDNAKNTVYLQMNSLKPEDTAVYYCATDDFWNVKFYAYYPDFDHWGQGTQVTVSS | low polyreactivity
QVQLVESGGGLVQEGGSLRLSCAASGSIFFYYAMGWYRQAPGKERELVAAITSSGDSTYYADSVKGRFTISRDNAKNTVYLQMNSLKPVETAVYYCAALYIGYTGYYYWGQGTQVTVSS | low polyreactivity
QVQLVESGGGLVQAGGSLRLSCAASGRILYVYAMGRYRQAPGKERELVAAITSGGSTHYADSVKGRFTISRDNAKNTVYLQMNSLKPEDTAVYYCAAYTLRNRGGFNYWGQGTQVTVSS | high polyreactivity
QVHLVESGAGLVQAGGSLRLSCAASGSVFPVNAMGWYRQAPGKERELVAAISGSSGSTYYADSVKGRFTISRDNAKNTVYLQMNSLKPEDTAVYYCAKRGYGYGDGAYYYWGQGTQVTVSS | low polyreactivity
QVQLVESGGGLVQAGGSLRLSCAASGITFTSYAMGWYRQAPGKERELVAAISWSGDRTYYADSVKGRFTISRDNAKNTVYLQMNSLKPEDTAVYYCAADQFTGSVWAYYYWGQGTQVTVSS | high polyreactivity
QVQLVESGGGLVQAGGSLRLSCAASGIIFRRYARGWYRQAPGKERELVAAITRGGITYYADSVKGRFTISRDNAKNTVYLQMNSLKPEDTAVYYCAATYSGTYSLGGGYDYWGQGTQVTVSS | low polyreactivity
QDQLVESGGGLVQAGGSLRLSCAASGSNFVPYAMGWYRQSPGKERELVAAISGSGTRTYYAYSVKGRFTISRDNSKNTVYLQMNSLKPEDTAVYYCDADWRRSVGYTMGYWGQGTQVTVSS | high polyreactivity
QVQLVESGGGLVQAGGSLRLSCAASGRTFTGYAMGWYRQAPGKERELVASISSRGGSTYYADSVKGRFTISRDNAKNTVYLQMNSLKPEDTAVYYCAADSVRHTYSWWYAVDYWGQGTQVTVSS | high polyreactivity
QVQLVESGGGLVQAGGSLRLSCAASGLIFSEYAMGRSRQAPWKERELVAAIRSDGGSTYYADSVKGRFTISRDNAKNSVYLQMNSLKPEDTAVYYCNAPYRRSAKFRRYGYDYWGQGTQVTVSS | high polyreactivity
QVQLVESGGGLVQAGGSLRLSCAASGSIFVYNAMGWYRQAPGKERELVASITWSGGRTYYADSVKGRFTISRDNAKNTVYLQMNSLKPEDTAVYYCNVRQGGPTVTWEYDYWGQGTQVTVSS | high polyreactivity
QVQLVESGGGLVQAGGSLRLSCAASGYTVYANAMGWYRQAPGKEREFVASITWSGGSTYYADSVKGRFSISRDNAKNPVYLQMNSLKPEDTAVYYCAAESWFKYDYWGQGTQVTVSS | low polyreactivity
QVQLVESGGGLVQAGGSLRLSCAASGFTFSRYAMGWYRQAPGKERELVAAISRSGGRTSYADSVKGRFTISRDNSKNTVFLQMNSLKPEDTAVYYCAARTATGSSSSIGYGYWGQGTQVTVSS | high polyreactivity

Sequence | polyreactivity (PSR sort gate)
QVQLVESGGGLVQAGGSLRLSCAASGLTFHPYAMGWYRQAPGKERELVAAISSRGTSTYYADSVKGRFTISRDNAKNTVYLQMNSLKPEDTAVYYCAARYRLYYYFRFDWGQGTQVTVSS | high polyreactivity
QVQLVESGGGLVQAGGSLRLSCAASGSILSYYVMGWYRQAPGKERELVAAITSDGSTNYADSVKGRFTISRDNAKNTVYLQMNSQKPEDTAVYYCAAVIAWYYGVQDVYYLGLYDYWGQGTQVTVSS | low polyreactivity
QHQLVESGGGLFQAGGSLRLSCAPSGSIIVWNAMGWYRQAPGKERELVASMTSGASTYYADSGKGRVTISRDNAKNTVYLQMNSLKPEDTAVYYCAAYYGYTDGWYLYSGYNYWGQGTQVTVSS | low polyreactivity
QVQLVESGGGLVQAGGSLLLSCAASGITSWYYVMGWYRQAPGKERELVAAITRSGGSTYYADSVKGRFTISRDTAKNTVFLQMNSLKPEDTAVYYCAARSYPQRWTTYPYGYWGQGTQVTVSS | high polyreactivity
QVQLVESGGGLVQAGGSLRLSCAASGRIFYYNAKGWYRQAPGKERELVATISRGGSTYYADSVKGRFTISRDNAKNTVDLQMNSLKPEDTAVYYCATRVLYYQSSYDYWGQGTQVTVSS | high polyreactivity
QVQLVESGGGLVKAGGSLRLSCAASGRIFGRYAMGWYRQAPGKEREFVAAISKRGGGTYYADSVKGRFTISRDNAKNTVYLQMNSLKPEDTAVYYCAVDNSPGFDDYDYWGQGTQVTVSS | high polyreactivity
QDQLVESGGCLVQAGGSLRLSCAASRFTFSPYTMGWYRQAPGKERELVATIRYDGTSTYYADSVKGRFTISRDNAKNTVYLQMNSLKPEDTAVYYCNADPGYYDYDYWGEGTQVTVSS | low polyreactivity
QVQLVESGGGLVQAGGSLRLSCAASGSIFINNAMGWYRQAPGKERELVAAISSSGTTYYADSVKGRFTISRDNAKNSVYLQMNSLKPEDTAVYYCNARYSLHSYYCFIYDSWGQGTKVTVSS | low polyreactivity
QVQLVESGGGLVPAGGSLRLSCAASGRTVRRNAMGWYRHAPGKERELVADISNGDSTKYADSVKGRFTISRDNAKNTVYLQMNSVNPEDTAVYYCATEVSWHWYQQSVTRMDYWGQGTQVTVSS | low polyreactivity
QVQLVESGGGLVQAGGSLRLSCAASGITFSHYAMGWYRQAPGKEREFVAAIRYSGGRTYYADSVKGRFTISRDNAKNTVYLQMNSLKPEDTAVYYCAAVVPDRYWGQGTQVTVSS | high polyreactivity
QVQLVESWGGLVQAGGSLRLSCAASGSTFGKYAMGWYRQAPGKERELVAAISYRGGRTFYADSVKGRFTISRDNAKNTVYLQMNSLKPEDTAVYYCAAYPGVSRGTGPRRYDYWGQGTQVTVSS | high polyreactivity
QVQLVESAGGLVQAGGSLRLSCAASVSIFFIYARGWYRQAPGKERELVATISRSDVSTFYGDSVKGRFTISRDNAKNTVYLQMNSLKPEDTAVYYCAAEWSPPEPIQLYGYWGQGTQVTVSS | high polyreactivity
QVQLVESGGGLVQAGGSLRLSCAASGITFKYYAMGWYRQAPGKERELVAAITSGTRTNYADSVKGRFTISRDNAKNTVYLQMNSLKPEDTAVYYCAKVGSWYTSHRFGYWGHGTQVTVSS | high polyreactivity
QVQLVESGGGLVQAGGSLRLSCAASGSTFQINAMGWYRQAPGKEREFVAAITVSSGSTYYADSVKGRFTISRDNAKNTVYLQMNSLKPEDTAVYYCAAEFHWWYAGYDYGYWGQGTQVTVSS | low polyreactivity
QVQLVESGGGLVQAGGSLRLSCAASGRIGPNVMGWYRQPPGKERELVARITWRGGSTYYADSVKGRFTISRDNAKNTVYLQMNSLKPEDTAVYYCNARGHGGWGTSMYYWGQGTQVTVSS | high polyreactivity
QVQLVESGGGLVQAGGSLRLSCAASGFILSDNAMGWYRQAPGKEREFVAAITSSGGSTHYADSVKGRFTISRDNAKNTVYLQMNSLKPEDTAVYYCAVGRPYWYDVWSFVSHYDYWGQGTQVTVSS | low polyreactivity
QVQLVESAGGLVQAGASLRLSCAASGYIFFGNAMGWYRQAPGKERELVAAIRWRGTSTYYADSVKGRFTISRDNAKNTVYLQMNSLKPEDSAVYYCAADVVRSNFYGTFLYDYDYWGQGTQVTVSS | low polyreactivity
QVQLVESGGGLVQAGGSLRISCAASGSIFGWYAMGWYRPAPGKEREFVATISRRGGRTYYADSVKGRFTISRDNAKNTVYLQMNSLKQEDTAVYYCAANSVYKEDYWGQVTQVTVSS | high polyreactivity
QVQLQESGGGLVQAGGTLRLSCAASGSFSADEDMGWYRQSQGKEREFVAGISVGGNTNYADSVKGRFTISRENAKKTVYLKINCLKPEDTAVYYCRVRLRTSYLLDYWGQGTQVTVSS | high polyreactivity
QVQLVDSGGGLVQAGGSLRLSCAASGSITYYAMGWYRQAPGKERELVAAISSSGGSTYYADSVKGRFTISRDNAKNTVYLQMNSLKPEDTAVYYCAAYGRYGAHTGYGSWGQGTQVTVSS | high polyreactivity
QVQLVESGGGLVQAGGSLRLSCAASGSIFTLYAMGWYRQAPGKERELVAAITSGGRTYYADSVKGRFTISRDNAKNTVYLQMKSLKPEDTAVYYCNAVSRSWDFEYWGQGTQVTVSS | high polyreactivity
